Measured values from article doi:10.1101/2020.02.21.958371.

Assays:
Assay in all cases: MST
RMB1 MBD = biological target: T1, RMB1 MBD (Arabidopsis thaliana, UniProt F4I209 1-81)
T1 sequence: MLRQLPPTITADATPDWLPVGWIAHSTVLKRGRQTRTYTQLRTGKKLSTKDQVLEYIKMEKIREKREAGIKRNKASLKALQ

RMB1 MBD W22G = biological target: T2, RMB1 MBD W22G (Arabidopsis thaliana, UniProt F4I209 1-81, W22G)
T2 sequence: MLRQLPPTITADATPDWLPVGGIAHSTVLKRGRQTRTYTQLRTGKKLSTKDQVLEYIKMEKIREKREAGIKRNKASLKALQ

RMB1 MBD K50T = biological target: T3, RMB1 MBD K50T (Arabidopsis thaliana, UniProt F4I209 1-81, K50T)
T3 sequence: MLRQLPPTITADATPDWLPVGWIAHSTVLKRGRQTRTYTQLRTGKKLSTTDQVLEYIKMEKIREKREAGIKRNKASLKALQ

RMB1 MBD T49A = biological target: T4, RMB1 MBD T49A (Arabidopsis thaliana, UniProt F4I209 1-81, T49A)
T4 sequence: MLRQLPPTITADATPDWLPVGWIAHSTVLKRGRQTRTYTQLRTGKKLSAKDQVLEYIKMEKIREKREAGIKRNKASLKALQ

RMB1 MBD Y38F = biological target: T5, RMB1 MBD Y38F (Arabidopsis thaliana, UniProt F4I209 1-81, Y38F)
T5 sequence: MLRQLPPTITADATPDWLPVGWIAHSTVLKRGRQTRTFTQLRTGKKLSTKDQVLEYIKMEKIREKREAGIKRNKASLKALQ

B1: AT5G39160 mCG (dsDNA)
DNA 1: TTTGGTACGGACTTTTAGTTACAAGAGAGCATTTAAACAAAAATGACCGGTAGATGGAA
DNA 2: TTCCATCTACCGGTCATTTTTGTTTAAATGCTCTCTTGTAACTAAAAGTCCGTACCAAA
modifications: 5mC at forward 8 and 48; reverse strand line not in material, its methylation unknown
RMB1 MBD
  Kd: 1.77 ± 0.7 µM
RMB1 MBD W22G
  Kd: 13.3 ± 4.67 µM
RMB1 MBD K50T
  binding result: no binding
RMB1 MBD T49A
  Kd: 3.58 ± 2.07 µM
RMB1 MBD Y38F
  Kd: 2.15 ± 0.75 µM

B2: AT5G39160 mCHH (dsDNA)
DNA 1: TTTGGTACGGACTTTTAGTTACAAGAGAGCATTTAAACAAAAATGACCGGTAGATGGAA
DNA 2: TTCCATCTACCGGTCATTTTTGTTTAAATGCTCTCTTGTAACTAAAAGTCCGTACCAAA
modifications: 5mC at forward 12, 22, 30, 38; reverse unmethylated
RMB1 MBD
  Kd: 2.86 ± 1.21 µM

B3: AT5G39160 mCHG (dsDNA)
DNA 1: TTTGGTACGGACTTTTAGTTACAAGAGAGCATTTAAACAAAAATGACCGGTAGATGGAA
DNA 2: TTCCATCTACCGGTCATTTTTGTTTAAATGCTCTCTTGTAACTAAAAGTCCGTACCAAA
modifications: 5mC in CHG context; positions not in material (base sequence taken from Um probe)
RMB1 MBD
  Kd: 3.34 ± 0.27 µM
RMB1 MBD K50T
  binding result: no binding
RMB1 MBD T49A
  Kd: 4.11 ± 2.92 µM
RMB1 MBD Y38F
  Kd: 5.16 ± 2 µM
